Laboratory results as given in the supplement of paper PMC12042874.
± gives the uncertainty stated by the source.

Assay: amyloid nucleation score (Sup35N fusion, yeast selection) (log enrichment); library NNK2; higher = more nucleation; inactive = no reads after selection
Procedure, shortened: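 The nucleation score is a DiMSum log enrichment of output over input reads, centred on the mode score of non-aggregating sequences. Sequences under 100 input reads were excluded, and reads came from Illumina sequencing of plasmid inserts. Psi-negative yeast expressing Sup35N fused to peptides of 20 random codons were induced with 100 μM copper sulfate for 24 hours and grown 7 days at 30°C on medium lacking adenine and uracil. Random libraries had three technical output replicates.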

| Substance | amyloid nucleation score |
| --- | --- |
| TTRSRVWRKLGSSCTI | 0.242 ± 0.31 |
| FYLYNFMCEVLYMESRRVMS | inactive |
| ITVFILDRYFGICV | inactive |
| IRADIHKLHLTIIYFKPPLV | -0.47 ± 0.78 |
| HYSIIWTAS | 0.233 ± 0.46 |
| PAVFRHHPGKHVRHGSSTTT | 0.73 ± 0.28 |
| ILDLWIVESKCFTSNMLHWV | -0.424 ± 0.76 |
| SPCLVLL | 0.2 ± 0.28 |
| LGIVDRTFQSMPYVGWMMV | 0.563 ± 0.36 |
| FQLYT | 0.238 ± 0.29 |
| IMMLEVDDLYGIEQSTFWK | -0.33 ± 0.64 |
| WVFRK | -0.11 ± 0.76 |
| RGSGSVMNSGYEAASRRLGG | -0.12 ± 0.46 |
| HSFPRCNSVHWPDDIGGCDG | 4.58 ± 0.047 |
| SSTVAGAIIE | 0.575 ± 0.18 |
| LDVTHN | 0.6 ± 0.35 |
| LNLQSLTSHTVKGL | 0.147 ± 0.54 |
| RCKCNAIEVT | 0.565 ± 0.2 |
| CVVRSSAKRFDCRKFGRASN | 0.599 ± 0.8 |
| RRLAGSTAEKMYMF | inactive |
| HLCHLLRSEHCRNGGSEKSR | 1.61 ± 0.29 |
| ATRCFSNWDTSACYMWKC | 8.074 ± 0.061 |
| DSLEGVSCSLMSLSTLTGEC | 0.143 ± 0.54 |
| GVSVMKVLYLCTIDKALCFG | 6.06 ± 0.068 |
| IIILYCGRYLINWTFLSCAY | inactive |

| Substance | amyloid nucleation score |
| --- | --- |
| GNRLWFGTIVRHLIYEVYVR | 0.665 ± 0.36 |
| VVRKGCL | -0.86 ± 1.1 |
| LDRDVVYTCVDCVFGVGILK | -1.19 ± 0.75 |
| DIFLM | 0.487 ± 0.15 |
| RRWYYFIEWRKYYQNRTVDQ | -0.321 ± 0.8 |
| MGARSIRDRSSVGK | -0.464 ± 1.1 |
| QGCPFWYNYVLVYSVSGGIS | 2.36 ± 0.14 |
| RLGSRGSLSFYVHLTCWVEV | -0.27 ± 0.79 |
| LTCSVNTGYYGYIRRL | -0.607 ± 0.25 |
| MFDFCPIMTLF | -0.771 ± 1.1 |
| IFPVLPGTLYRCTMMC | -0.612 ± 0.32 |
| HLGHKKVRWDMSAELWQ | 2.75 ± 0.1 |
| SCSWCMLVPRGGVGVPKG | 0.335 ± 0.22 |
| ESSVITGLWHV | -0.081 ± 0.8 |
| MRGAYLRFRSMCAGAAGKCD | inactive |
| IFWAYAICCIYGLRGCRGEY | 6.64 ± 0.084 |
| VDVRMDEWVDRTAFAWMMRV | 0.875 ± 0.43 |
| RRSGGPGEDGGSYERQFTSR | 0.95 ± 0.32 |
| IRGSSIEKNRMWHVGLSLTW | -0.809 ± 1.1 |
| FSGKMN | 0.301 ± 0.57 |
| LWRGRIFLICFRSRDSNMCL | inactive |
| WIWVMWNKLCDSPDVWLANW | 0.816 ± 0.51 |
| NNWYQTGSVAEASIEPSSMQ | 1.6 ± 0.41 |
| THVECALMTYPDVYSDEGFI | -0.001 ± 0.32 |
| TSNRTTNSLLMCDKLRNTSV | -0.345 ± 0.25 |

| Substance | amyloid nucleation score |
| --- | --- |
| VMFLFGGCTDNS | 0.382 ± 0.8 |
| APSLIYFNVST | 3.75 ± 0.13 |
| SWHQKSELKTCWSLAIQYHT | -0.191 ± 0.65 |
| FLGWPGIRQCLLFVANNRGR | -0.448 ± 0.76 |
| IVSCFTRVN | 5.26 ± 0.059 |
| CAISYSFPGIFRQWCVFPDG | -0.593 ± 0.33 |
| SMGYYDLFELYPNRHGYYGF | inactive |
| GFRNCWKWPHWVLAPMLYNS | 0.007 ± 1.1 |
| SRYGWMNRWKQPVQVVNPGF | 0.031 ± 0.38 |
| NDSFPRDNFVESWQACEILM | -0.78 ± 0.44 |
| SNEHKYFQNIATNVLV | -0.371 ± 0.64 |
| GYAVRRYDLMNLFRSMWASC | -0.739 ± 0.79 |
| QHSKD | -1.71 ± 0.77 |
| EIFAGICSSLAFKGHGRKSG | 6.29 ± 0.065 |
| LRAWLSSLAHTKRRCELGTP | 0.575 ± 0.3 |
| CRCGWKGDSFKISMKMRNWV | 5.36 ± 0.066 |
| FTCDSSLYAES | -0.485 ± 0.41 |
| CLWSSNSSSIWDIGRYFRR | -1.21 ± 0.31 |
| TIWFFFL | 7.075 ± 0.043 |
| YADPFSERYNFSALVFPFNI | inactive |
| NGTLRAFVIKKVRIIDSRQV | 4.09 ± 0.076 |
| QLLRCNRRSKMLDR | -0.156 ± 0.76 |
| RDNFLNEY | -0.953 ± 0.36 |
| YYWASRLVMPCSNRWRLYLQ | -0.474 ± 1 |
| WFMSIMSKYCRVSF | -0.149 ± 0.79 |

| Substance | amyloid nucleation score |
| --- | --- |
| TFSFFATVDQMFCCVGRCEW | 8.132 ± 0.03 |
| LTIFNYSFWKVDY | 0.91 ± 0.18 |
| GEISIGMNLTGEKTSSSGFK | -0.679 ± 1.1 |
| PIWWLL | -0.822 ± 0.79 |
| CVSVGCVESGTMICQLKLSQ | 7.19 ± 0.075 |
| SVIHREIELVFILI | 4.4 ± 0.087 |
| YNILVK | -0.622 ± 0.43 |
| ANTCVPPLLRMFPLRGRTHI | -0.184 ± 1.1 |
| NMGSYD | inactive |
| REALDHWVDRVTVRWVRICI | -0.474 ± 0.35 |
| FMGSSIGLSSCPLEDTYVLP | -0.403 ± 1 |
| CRSFAVTDLRVYVKF | 2.12 ± 0.12 |
| THTSLLSLVP | -0.291 ± 0.76 |
| QSYMSGKYVVLVQRGEVFSF | -1.21 ± 0.49 |
| YYFKFNSS | 3.65 ± 0.12 |
| TLDTSYYFLTRVFNHLNISE | -0.776 ± 0.55 |
| TLSSKLFCVKASVRSMGPVV | 7.723 ± 0.047 |
| NSGHYFKDKSWCQMRS | 0.615 ± 0.66 |
| VWWFPRLPIPKESVIINGLS | inactive |
| GMNRL | -0.869 ± 0.55 |
| DSEPVYYTVNFNQLLSRLYY | 1.52 ± 0.32 |
| YWFPEASMFLIPL | -1.49 ± 1.1 |
| VEMKGRWLIVNRRLGVSPQA | 0.097 ± 0.35 |
| YDRIGCRASTSLSAYPLATA | 2.58 ± 0.076 |
| FLCYKISSFVSICKQQEAHA | -0.064 ± 1.1 |

| Substance | amyloid nucleation score |
| --- | --- |
| RRLKLRINMVFLEYGFKSKF | 3.8 ± 0.046 |
| DNSYVMDLECLICCNFSNTK | 8.201 ± 0.025 |
| RFSCAEYVPVMT | 0.298 ± 0.56 |
| HTSMWFL | -0.145 ± 1.1 |
| LVRMIIVYTCRW | 0.533 ± 0.33 |
| INSAGNLPQERTVLGYFHCS | -1.44 ± 0.62 |
| KGCVMSY | -0.578 ± 1.1 |
| MDCILNYFFVLLLGHGNLLM | -0.826 ± 0.54 |
| QIASYDFCHRVGRMGPTVCV | -0.165 ± 0.54 |
| NLFPSQTLYVFRHVGCCG | inactive |
| NDRSSDWCCIPSKLRWSRSG | 4.1 ± 0.057 |
| KYMRLSSPAGSAVPLWTLYL | 0.148 ± 1 |
| MSPNLIMMHHCH | 0.094 ± 0.41 |
| MQYCLGFDLNLRNYICHPGR | 7.303 ± 0.063 |
| NRTFSQRSVRLVSCPLLSKA | inactive |
| SNWFLWHTSTRFMIKENIMY | 0.516 ± 0.74 |
| IICSNRQIRFKKGDFFIVFW | inactive |
| RSILEM | -0.302 ± 0.61 |
| FMFRQCSQFMMGYYLLNG | 0.313 ± 0.46 |
| VLLLGVSVRHFKGLGVPTKR | 5.06 ± 0.065 |
| DWLNSVFFLPFKCGLCVLRA | 0.06 ± 0.4 |
| ALIGLWVGKPFPGGMLVLFM | 0.24 ± 0.3 |
| KVTARPFRQC | 4.997 ± 0.045 |
| WRYSRKMDRPFYRAMCYVNI | 1.68 ± 0.1 |
| FWHIEMCENSTYHVSLSTGC | 4.394 ± 0.04 |

| Substance | amyloid nucleation score |
| --- | --- |
| SYVGICGAMNLCSETVSCMV | -0.977 ± 0.41 |
| EMGVGSYSGRCATSGGSNLQ | 0.929 ± 0.27 |
| QLNAVDMAKPVVGLFREQSY | -0.15 ± 0.39 |
| WKVRISVFMLEAL | 2.77 ± 0.075 |
| CRSTGIDIIYYHISFFLYIW | inactive |
| HWYLRSV | 0.239 ± 0.43 |
| VIDGNKDGSMTFPVQGDALR | 1.2 ± 0.48 |
| ISGAL | 0.203 ± 0.45 |
| PRFIQGYILRNLCARMLKYS | -0.368 ± 0.39 |
| YEYVCVLAVACITGRFTLHW | -0.757 ± 0.36 |
| VNDKFHFILF | 0.019 ± 0.8 |
| VLMEWTLGVTHDNISDDYSD | 2.58 ± 0.082 |
| YTAFLFICTRALLMPDMKFL | inactive |
| TIIRDFSWLHLGFPRACIIT | -0.976 ± 0.64 |
| SCKKCMSYVVVVNIVRHICM | 1.86 ± 0.11 |
| GKEIRNNITMCGYLMQNICD | 2.85 ± 0.17 |
| ILKSRSLVRFHFFSIGASCA | 0.427 ± 0.41 |
| FPCAMYTEWHVAVTVSICYG | -0.36 ± 0.76 |
| QRCISGNTNSVCRLEYRWLM | 0.396 ± 0.44 |
| LFSYWSVYSGLREVGPYCMV | 0.79 ± 0.21 |
| VLCTRRLPLYHSSNDQ | 0.128 ± 0.32 |
| SYFKSTSARCFSFYLCCAKT | 6.224 ± 0.05 |
| WWVKTVLFKK | -0.947 ± 0.78 |
| SDICRREMHNTAIFLALF | 1.56 ± 0.1 |
| RMLSRSRWLTI | -0.169 ± 0.34 |

| Substance | amyloid nucleation score |
| --- | --- |
| DKTKE | inactive |
| RVYLFLELIRALSFRTNHCG | -0.245 ± 0.76 |
| EIEEYWGV | -0.125 ± 0.63 |
| NMMGMAYSV | 0.063 ± 1.1 |
| VTIFILFSLNSGGHGSDRVW | 4.849 ± 0.031 |
| NYMRVNWLLFSSSQPVICVG | 0.107 ± 0.79 |
| LSQARVYLCYFEFSYFVVEP | 1.83 ± 0.12 |
| SFNEWLSR | -0.391 ± 0.55 |
| STWKNDHTHSCASWAKVCIT | -0.138 ± 0.34 |
| INLISSYHFGELTCATSYWR | 4.77 ± 0.09 |
| CSRLG | -1.39 ± 1.1 |
| LLYQLRNMVILEHFMMIDFM | inactive |
| VDKLGKLEVYSWLYWV | -1.86 ± 0.55 |
| WDPQCGSLPFFLLNAEAFET | inactive |
| CLVVHFPVCQQAKKDCDFRY | 4.53 ± 0.051 |
| CVSSARNIHFNGVVKCVRYR | 2.79 ± 0.054 |
| DDSFGVAVMKVWEMRGWSAL | 1.16 ± 0.27 |
| CDFDIHERMCPYCYIIQVGD | -0.081 ± 0.65 |
| TILWEVVGAL | 0.091 ± 0.17 |
| KKEVINWYFLTYAGLEKLCL | -0.715 ± 0.48 |
| HRFSLRNHCRSFSSGHLVHN | -1.24 ± 0.75 |
| FTIIGAAIKRVVVLTVSPYY | inactive |
